Data reported in patent US20220325000A1 (SUZHOU ALPHAMAB, published 2022).

T1: hTFPI161-Chis (human, UniProt P10646 29-189, limits assumed)
T1 construct: also called human TFPI; not shown: C-terminal His tag ('Chis')
T1 sequence (looked up): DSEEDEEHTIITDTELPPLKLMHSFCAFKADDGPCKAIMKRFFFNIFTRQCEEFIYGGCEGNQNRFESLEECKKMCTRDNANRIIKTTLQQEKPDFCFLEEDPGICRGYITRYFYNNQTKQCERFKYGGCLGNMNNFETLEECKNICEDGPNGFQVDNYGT


Legend:
[1] = biological target: T2, hTFPI antigen (human); assay: competitive ELISA, FXa coated (competitor), supernatant diluted 100x
T2 construct: Self-made hTFPI used in the hybridoma screens; It may be the same protein as hTFPI161; also called human TFPI; hTFPD
Protocol: (§1) Coat with 2μg/mL FXA Protease (Neb, batch No. 0941404), after blocking with BSA, the same diluted supernatant of TFPI hybridoma cells and 50 ng/mL hTFPD (batch No. TE20140825, self-made) were added for complete incubation, followed by 1:1500 diluted mouse THETM His Tag Antibody [HRP] mAb (GenScript, batch No. 14C000744), after development by TMB, 1 M H2SO4 stop solution was added to stop developing and the value was read on the microplate reader. Using 650 nm as the reference wavelength, the OD values were read at 450 nm and 650 nm. […] The lower the OD value, the better the inhibition of the anti-TFPI antibody.
(§2) Afterwards, the supernatant of 31 7G6 subcloned cells was performed with the inhibition experiment at different dilution ratios, and the experimental method was the same as 1.2.

[2] = biological target: T2, hTFPI antigen; assay: competitive ELISA, FXa coated (competitor), supernatant diluted 10x
Protocol: as §1, §2

[3] = biological target: T2, hTFPI antigen; assay: ELISA, subclone supernatant, hTFPI, OD450
[4] = biological target: T1, hTFPI161-Chis; assay: ELISA, hTFPI161 coated, anti-human IgG4-HRP, four-parameter fit
Protocol: hTFPI161 protein was coated on the plate at 0.5 μg/well overnight at 4° C. After washing, the gradient dilution series of h7G6 antibody protein obtained in the above example was added, and incubated at 25° C±2° C. for 2 h. After washing, 1:2000 diluted Mouse Anti-Human IgG4 pFc′ antibody [HP 6023] (HRP) was added at 100 μL/well, and incubated at 25° C.±2° C. for 2 h. After washing, the development solution was added, and the absorbance was read at the wavelength of 450/650 nm. The software SotfMax Pro v5.4 was applied for data processing and mapping analysis, using four-parameter fitting, the binding curve of h7G6 antibody to hTFPI161 and EC50 value were obtained, which reflects the affinity of the antibody for hTFPI161.

[5] = biological target: T1, hTFPI161-Chis; assay: BLI, antibody on Protein A biosensor, hTFPI161-Chis 1.875-30 nM, 1:1 model; batch 180820DS
Protocol: (§3) In this experiment, the affinity of h7G6 for human TFPI was detected based on Bio-Layer Interferometry (BLI) technology. K2 instrument of Fortibio was used. Firstly, KN057 was diluted to […] and immobilized on Protein A biosensor (model 18-5010), then hTFPI161-Chis was diluted to 30 nM, 15 nM, 7.5 nM, 3.75 nM and 1.875 nm to combine with h7G6, respectively, and the binding signals with different intensities could be detected. The results were fitted using 1:1 model to calculate the equilibrium constant (KD) of the sample.

[6] = biological target: T1, hTFPI161-Chis; assay: competitive ELISA, FXa coated (competitor), 50 ng/mL hTFPI161, anti-His-HRP, four-parameter fit
Protocol: FXa Protease was coated on the plate at 0.2 μg/well overnight at 4° C., after blocking with BSA, the gradient dilution series of hu7G6 antibody protein obtained from the above example was added at 100 uL/well (50 ng/mL hTFPI161 was contained in the dilution), and the reaction was carried out at room temperature for 1 hour. After washing, 1:1500 diluted Mouse THETM His Tag Antibody [HRP] mAb was added, and the reaction was carried out at room temperature for 1 hour. After washing, the development solution was added, and the absorbance was read at the wavelength of 450/650 nm.
The software SotfMax Pro v5.4 was applied for data processing and mapping analysis, using four-parameter fitting, the inhibition curve of h7G6 antibody for FXa-TFPI and EC50 value were obtained. The results were shown in FIG. 3, in which the ordinate was OD450 and the abscissa is the concentration of h7G6 antibody protein (ng/mL); and Hu7G62-v2 antibody protein was effective in inhibiting the interaction between FXA and TFPI.

[7] = biological target: T1, hTFPI161-Chis; assay: BLI, antibody on Protein A biosensor, hTFPI161-Chis 1.875-30 nM, 1:1 model; batch 180727DS
Protocol: as §3

[8] = biological target: T1, hTFPI161-Chis; assay: BLI, antibody on Protein A biosensor, hTFPI161-Chis 1.875-30 nM, 1:1 model; mean of three batches; average of three batches
Protocol: as §3

| Binder | Inhibition % [1] [%] | Inhibition % [2] [%] | OD [3] | EC50 [4] [µg/mL] | Kd [5] [nM] | IC50 [6] [µg/mL] | Kd [7] [nM] | Kd [8] [nM] |
| --- | --- | --- | --- | --- | --- | --- | --- | --- |
| TFPI-7G6-1C12 (antibody, V domains shown, Subclone supernatant) VH: QVQLQQSGAELARPGASVKLSCKASGYSFTSYGISWVKQRTGQGLEWIGEIYPRSTNTYYNEKFMGKATLTADKSSSTAFMELRSLTSEDSAVYFCARESFYGDYGAMDFWGQGASVTVSS VL: not shown | 57.9 | 95.2 | 1.24 |  |  |  |  |  |
| TFPI-7G6-5F11 (antibody, V domains shown, Subclone supernatant) VH: QVQLQQSGAELARPGASVKLSCKASGYSFTSYGISWVKQRTGQGLEWIGEIYPRSTNTYYNEKFMGKATLTADKSSSTAFMELRSLTSEDSAVYFCARESFYGDYGAMDFWGQGASVTVSS VL: not shown | 55 | 95.1 | 1.35 |  |  |  |  |  |
| TFPI-7G6-2G8 (antibody, V domains shown, Subclone supernatant) VH: QVQLQQSGAELARPGASVKLSCKASGYSFTSYGISWVKQRTGQGLEWIGEIYPRSTNTYYNEKFMGKATLTADKSSSTAFMELRSLTSEDSAVYFCARESFYGDYGAMDFWGQGASVTVSS VL: not shown | 62.7 | 95.9 | 1.27 |  |  |  |  |  |
| TFPI-7G6-5A10 (antibody, V domains shown, Subclone supernatant) VH: QVQLQQSGAELARPGASVKLSCKASGYSFTSYGISWVKQRTGQGLEWIGEIYPRSTNTYYNEKFMGKATLTADKSSSTAFMELRSLTSEDSAVYFCARESFYGDYGAMDFWGQGASVTVSS VL: not shown | 62.1 | 95.9 | 1.25 |  |  |  |  |  |
| Hu7G62-v2 (antibody, human IgG4 S228P, kappa, V domains shown, also called hu7G6-2v2-G4ws; h7G6 antibody) VH: QVQLVQSGAEVKKPGASVKVSCKASGYSFTSYGISWVKQAPGQGLEWIGEIYPRSTNTYYNEKFMGKATLTADKSSSTAYMELSSLRSEDTAVYYCARESFYGDYGAMDFWGQGTLVTVSS VL: DIVMTQSPLSLPVTPGEPASISCKSSQSLLESDGKTYLNWYLQKPGQSPQLLIYLVSKLDSGVPDRFSGSGSGTDFTLKISRVEAEDVGVYYCSQGTHFPRTFGQGTKVEIKR |  |  |  | 0.0419 | 1.47 | 0.222 | 1.32 | 1.37 |
